We go through 2 substances from US11708418.

The target of experiment [1] is Daratumumab (Darzalex; lot GHS0901, Janssen, USA). The experiment in a line: anti-CD38 (DARATUMUMAB) inhibition IAT, ability to titrate the antibody, CD38ecd-Fc-10H as reference.
Experiment [2] shares this target. The experiment is described as follows: IAT inhibition; 25 µl Darzalex dilution with 2 µl of 8.5 mg/ml protein.

Sequence of CD38ecd-flex-Fc-10H (P28907 45-300): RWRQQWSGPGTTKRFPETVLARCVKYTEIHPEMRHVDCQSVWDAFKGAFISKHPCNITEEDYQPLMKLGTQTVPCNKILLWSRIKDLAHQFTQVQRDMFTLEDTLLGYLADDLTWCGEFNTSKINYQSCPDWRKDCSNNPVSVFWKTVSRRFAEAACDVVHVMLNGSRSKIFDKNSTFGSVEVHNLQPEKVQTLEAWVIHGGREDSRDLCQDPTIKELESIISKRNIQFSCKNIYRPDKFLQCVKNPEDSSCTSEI
Sequence of CD38ecd-Fc (P28907 45-300 limits assumed): as the sequence (P28907 45-300) above

With “CD38ecd-Fc (from UniProt P28907 45-300) (Fc fusion)”, the Functionality in experiment [1] stood at 50%.
With “CD38ecd-flex-Fc-10H (from UniProt P28907 45-300) (Fc fusion)”, the Functionality in experiment [1] came out at 100%. Further, the anti-CD38 concentration completely inhibited in experiment [2] amounted to 0.125 mg/mL.
